B1: SYVM_HUMAN (protein, UniProt Q5ST30 27-1063, looked up)
Valine--tRNA ligase, …: SVSTQSEPHGSPISRRNREAKQKRLREKQATLEAEIAGESKSPAESIKAWRPKELVLYEIPTKPGEKKDVSGPLPPAYSPRYVEAAWYPWWVREGFFKPEYQARLPQATGETFSMCIPPPNVTGSLHIGHALTVAIQDALVRWHRMRGDQVLWVPGSDHAGIATQAVVEKQLWKERGVRRHELSREAFLREVWQWKEAKGGEICEQLRALGASLDWDRECFTMDVGSSVAVTEAFVRLYKAGLLYRNHQLVNWSCALRSAISDIEVENRPLPGHTQLRLPGCPTPVSFGLLFSVAFPVDGEPDAEVVVGTTRPETLPGDVAVAVHPDDSRYTHLHGRQLRHPLMGQPLPLITDYAVQPHVGTGAVKVTPAHSPADAEMGARHGLSPLNVIAEDGTMTSLCGDWLQGLHRFVAREKIMSVLSEWGLFRGLQNHPMVLPICSRSGDVIEYLLKNQWFVRCQEMGARAAKAVESGALELSPSFHQKNWQHWFSHIGDWCVSRQLWWGHQIPAYLVVEDHAQGEEDCWVVGRSEAEAREVAAELTGRPGAELTLERDPDVLDTWFSSALFPFSALGWPQETPDLARFYPLSLLETGSDLLLFWVGRMVMLGTQLTGQLPFSKVLLHPMVRDRQGRKMSKSLGNVLDPRDIISGVEMQVLQEKLRSGNLDPAELAIVAAAQKKDFPHGIPECGTDALRFTLCSHGVQAGDLHLSVSEVQSCRHFCNKIWNALRFILNALGEKFVPQPAEELSPSSPMDAWILSRLALAAQECERGFLTRELSLVTHALHHFWLHNLCDVYLEAVKPVLWHSPRPLGPPQVLFSCADLGLRLLAPLMPFLAEELWQRLPPRPGCPPAPSISVAPYPSACSLEHWRQPELERRFSRVQEVVQVLRALRATYQLTKARPRVLLQSSEPGDQGLFEAFLEPLGTLGYCGAVGLLPPGAAAPSGWAQAPLSDTAQVYMELQGLVDPQIQLPLLAARRYKLQKQLDSLTARTPSEGEAGTQRQQKLSSLQLELSKLDKAASHLRQLMDEPPAPGSPEL
B2: DPOG1_HUMAN (protein, UniProt P54098 1-1239, looked up)
DNA polymerase subunit gamma-1: MSRLLWRKVAGATVGPGPVPAPGRWVSSSVPASDPSDGQRRRQQQQQQQQQQQQQPQQPQVLSSEGGQLRHNPLDIQMLSRGLHEQIFGQGGEMPGEAAVRRSVEHLQKHGLWGQPAVPLPDVELRLPPLYGDNLDQHFRLLAQKQSLPYLEAANLLLQAQLPPKPPAWAWAEGWTRYGPEGEAVPVAIPEERALVFDVEVCLAEGTCPTLAVAISPSAWYSWCSQRLVEERYSWTSQLSPADLIPLEVPTGASSPTQRDWQEQLVVGHNVSFDRAHIREQYLIQGSRMRFLDTMSMHMAISGLSSFQRSLWIAAKQGKHKVQPPTKQGQKSQRKARRGPAISSWDWLDISSVNSLAEVHRLYVGGPPLEKEPRELFVKGTMKDIRENFQDLMQYCAQDVWATHEVFQQQLPLFLERCPHPVTLAGMLEMGVSYLPVNQNWERYLAEAQGTYEELQREMKKSLMDLANDACQLLSGERYKEDPWLWDLEWDLQEFKQKKAKKVKKEPATASKLPIEGAGAPGDPMDQEDLGPCSEEEEFQQDVMARACLQKLKGTTELLPKRPQHLPGHPGWYRKLCPRLDDPAWTPGPSLLSLQMRVTPKLMALTWDGFPLHYSERHGWGYLVPGRRDNLAKLPTGTTLESAGVVCPYRAIESLYRKHCLEQGKQQLMPQEAGLAEEFLLTDNSAIWQTVEELDYLEVEAEAKMENLRAAVPGQPLALTARGGPKDTQPSYHHGNGPYNDVDIPGCWFFKLPHKDGNSCNVGSPFAKDFLPKMEDGTLQAGPGGASGPRALEINKMISFWRNAHKRISSQMVVWLPRSALPRAVIRHPDYDEEGLYGAILPQVVTAGTITRRAVEPTWLTASNARPDRVGSELKAMVQAPPGYTLVGADVDSQELWIAAVLGDAHFAGMHGCTAFGWMTLQGRKSRGTDLHSKTATTVGISREHAKIFNYGRIYGAGQPFAERLLMQFNHRLTQQEAAEKAQQMYAATKGLRWYRLSDEGEWLVRELNLPVDRTEGGWISLQDLRKVQRETARKSQWKKWEVVAERAWKGGTESEMFNKLESIATSDIPRTPVLGCCISRALEPSAVQEEFMTSRVNWVVQSSAVDYLHLMLVAMKWLFEEFAIDGRFCISIHDEVRYLVREEDRYRAALALQITNLLTRCMFAYKLGLNDLPQSVAFFSAVDIDRCLRKEVTMDCKTPSNPTGMERRYGIPQGEALDIYQIIELTKGSLEKRSQPGP
B3: NU133_HUMAN (protein, UniProt Q8WUM0 1-1156, looked up)
Nuclear pore complex protein …: MFPAAPSPRTPGTGSRRGPLAGLGPGSTPRTASRKGLPLGSAVSSPVLFSPVGRRSSLSSRGTPTRMFPHHSITESVNYDVKTFGSSLPVKVMEALTLAEVDDQLTINIDEGGWACLVCKEKLIIWKIALSPITKLSVCKELQLPPSDFHWSADLVALSYSSPSGEAHSTQAVAVMVATREGSIRYWPSLAGEDTYTEAFVDSGGDKTYSFLTAVQGGSFILSSSGSQLIRLIPESSGKIHQHILPQGQGMLSGIGRKVSSLFGILSPSSDLTLSSVLWDRERSSFYSLTSSNISKWELDDSSEKHAYSWDINRALKENITDAIWGSESNYEAIKEGVNIRYLDLKQNCDGLVILAAAWHSADNPCLIYYSLITIEDNGCQMSDAVTVEVTQYNPPFQSEDLILCQLTVPNFSNQTAYLYNESAVYVCSTGTGKFSLPQEKIVFNAQGDSVLGAGACGGVPIIFSRNSGLVSITSRENVSILAEDLEGSLASSVAGPNSESMIFETTTKNETIAQEDKIKLLKAAFLQYCRKDLGHAQMVVDELFSSHSDLDSDSELDRAVTQISVDLMDDYPASDPRWAESVPEEAPGFSNTSLIILHQLEDKMKAHSFLMDFIHQVGLFGRLGSFPVRGTPMATRLLLCEHAEKLSAAIVLKNHHSRLSDLVNTAILIALNKREYEIPSNLTPADVFFREVSQVDTICECLLEHEEQVLRDAPMDSIEWAEVVINVNNILKDMLQAASHYRQNRNSLYRREESLEKEPEYVPWTATSGPGGIRTVIIRQHEIVLKVAYPQADSNLRNIVTEQLVALIDCFLDGYVSQLKSVDKSSNRERYDNLEMEYLQKRSDLLSPLLSLGQYLWAASLAEKYCDFDILVQMCEQTDNQSRLQRYMTQFADQNFSDFLFRWYLEKGKRGKLLSQPISQHGQLANFLQAHEHLSWLHEINSQELEKAHATLLGLANMETRYFAKKKTLLGLSKLAALASDFSEDMLQEKIEEMAEQERFLLHQETLPEQLLAEKQLNLSAMPVLTAPQLIGLYICEENRRANEYDFKKALDLLEYIDEEEDININDLKLEILCKALQRDNWSSSDGKDDPIEVSKDSIFVKILQKLLKDGIQLSEYLPEVKDLLQADQLGSLKSNPYFEFVLKANYEYYVQGQI

The molecules below were run on KDM4A-I71AzF (assay: CASI: photo-crosslinking with HEK293T cell extracts, StrepTactin enrichment and LC-MS/MS proteomics). Conditions: sheet "Final results but with 0.01".
Assay type: binding, human
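Also: lysates from HEK293T cells pretreated with a KDM4 inhibitor to raise proteome methylation, affinity-purified after ±UV, gel-resolved, trypsin-digested, with exclusive unique peptides per protein averaged per condition.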

Molecule | Fold change (+UV/-UV)
B1 | 0.5
B2 | 0
B3 | 0.8

Reference: PMC10540216, “Activity Guided Azide-methyllysine Photo-trapping for Substrate Profiling of Lysine Demethylases” (Journal of the American Chemical Society, 2023)
